Reference: PMC8710044 (Biochemical pharmacology, 2021)

How the values were obtained:
CYP2C8 [1] = molecular target: T1, CYP2C8 (Homo sapiens, UniProt P10632); assay: Relative CYP contribution to hepatic bioactivation and detoxification, CYP2C8; assay type: in vitro ADME
T1 sequence (P10632 1-490): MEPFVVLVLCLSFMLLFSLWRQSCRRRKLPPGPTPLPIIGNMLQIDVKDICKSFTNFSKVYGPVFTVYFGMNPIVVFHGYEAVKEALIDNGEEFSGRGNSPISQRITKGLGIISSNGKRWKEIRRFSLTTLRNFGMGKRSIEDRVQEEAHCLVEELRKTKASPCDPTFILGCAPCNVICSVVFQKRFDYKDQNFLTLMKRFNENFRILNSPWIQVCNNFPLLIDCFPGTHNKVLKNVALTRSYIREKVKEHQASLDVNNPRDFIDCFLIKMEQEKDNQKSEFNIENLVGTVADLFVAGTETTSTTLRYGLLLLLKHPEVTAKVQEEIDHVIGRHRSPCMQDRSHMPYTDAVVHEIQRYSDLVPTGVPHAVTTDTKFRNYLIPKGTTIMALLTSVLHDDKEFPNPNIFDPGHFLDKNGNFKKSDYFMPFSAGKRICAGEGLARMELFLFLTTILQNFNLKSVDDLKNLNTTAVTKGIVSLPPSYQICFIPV

CYP2C9 = CYP2C9 (Homo sapiens, UniProt P11712); assay: Relative CYP contribution to hepatic bioactivation and detoxification, CYP2C9; assay type: in vitro ADME
Chain of CYP2C9 (P11712 whole entry): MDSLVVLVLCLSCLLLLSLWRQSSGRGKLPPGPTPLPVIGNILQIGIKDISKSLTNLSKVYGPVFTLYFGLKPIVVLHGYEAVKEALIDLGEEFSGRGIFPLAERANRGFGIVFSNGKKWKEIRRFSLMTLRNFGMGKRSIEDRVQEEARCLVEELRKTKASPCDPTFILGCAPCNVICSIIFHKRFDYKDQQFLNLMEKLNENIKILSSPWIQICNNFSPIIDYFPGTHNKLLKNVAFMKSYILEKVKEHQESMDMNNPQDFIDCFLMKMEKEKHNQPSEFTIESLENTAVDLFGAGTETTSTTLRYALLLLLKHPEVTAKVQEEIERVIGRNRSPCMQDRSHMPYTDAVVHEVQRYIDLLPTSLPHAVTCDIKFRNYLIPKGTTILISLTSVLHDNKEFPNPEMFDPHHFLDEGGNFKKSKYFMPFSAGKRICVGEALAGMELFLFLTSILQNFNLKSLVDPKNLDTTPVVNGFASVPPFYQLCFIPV

CYP2C19 [2] = molecular target: T2, CYP2C19 (Homo sapiens, UniProt P33261); assay: Relative CYP contribution to hepatic bioactivation and detoxification, CYP2C19; assay type: in vitro ADME
CYP2C19 [3] = molecular target: T2, CYP2C19; assay: Steady-state kinetics of overall NSAID metabolism; assay type: in vitro ADME
CYP2C8 [4] = molecular target: T1, CYP2C8; assay: Steady-state kinetics of overall NSAID metabolism; assay type: in vitro ADME
CYP3A4 [5] = molecular target: T3, CYP3A4 (Homo sapiens, UniProt P08684); assay: Relative CYP contribution to hepatic bioactivation and detoxification, CYP3A4; assay type: in vitro ADME
T3 sequence (P08684 whole entry): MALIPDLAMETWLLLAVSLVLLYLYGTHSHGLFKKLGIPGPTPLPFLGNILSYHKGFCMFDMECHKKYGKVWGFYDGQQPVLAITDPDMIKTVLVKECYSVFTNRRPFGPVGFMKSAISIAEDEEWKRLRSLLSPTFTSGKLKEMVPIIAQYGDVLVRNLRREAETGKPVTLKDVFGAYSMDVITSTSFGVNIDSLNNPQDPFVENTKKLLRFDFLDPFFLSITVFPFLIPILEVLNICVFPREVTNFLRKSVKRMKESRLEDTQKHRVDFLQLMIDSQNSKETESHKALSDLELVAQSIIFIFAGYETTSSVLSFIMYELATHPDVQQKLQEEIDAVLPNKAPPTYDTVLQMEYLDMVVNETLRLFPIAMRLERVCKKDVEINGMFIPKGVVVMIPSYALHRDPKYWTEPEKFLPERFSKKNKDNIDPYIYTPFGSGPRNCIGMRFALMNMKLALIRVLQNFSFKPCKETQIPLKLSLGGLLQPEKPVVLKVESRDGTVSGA

CYP3A4 [6] = molecular target: T3, CYP3A4; assay: Steady-state kinetics of overall NSAID metabolism; assay type: in vitro ADME
[7] = substrate: Cc1ccc(Cl)c(Nc2ccccc2C(=O)O)c1Cl; assay: cells, lysate or membranes named; conditions: 95% CI in parentheses, pH 7.4
[8] = substrate: Cc1ccc(Nc2c(F)cccc2Cl)c(CC(=O)O)c1; assay: cells, lysate or membranes named; conditions: 95% CI in parentheses, pH 7.4
[9] = substrate: Cc1c(Cl)cccc1Nc1ccccc1C(=O)O; assay: cells, lysate or membranes named; conditions: 95% CI in parentheses, pH 7.4
[10] = substrate: O=C(O)c1ccccc1Nc1cccc(C(F)(F)F)c1; assay: Steady-state kinetics of overall NSAID metabolism; assay type: in vitro ADME, human; conditions: other: overall metabolism (depletion) by CYP2C19; 95% CI in parentheses; pH 7.4
[11] = substrate: O=C(O)COC(=O)Cc1ccccc1Nc1c(Cl)cccc1Cl; assay: Steady-state kinetics of overall NSAID metabolism; assay type: in vitro ADME, human; conditions: other: overall metabolism (depletion) by CYP2C19; 95% CI in parentheses; pH 7.4
[12] = substrate: Cc1cccc(Nc2ccccc2C(=O)O)c1C; assay: Steady-state kinetics of overall NSAID metabolism; assay type: in vitro ADME, human; conditions: other: overall metabolism (depletion) by CYP2C19; 95% CI in parentheses; pH 7.4
[13] = substrate: O=C(O)c1ccccc1Nc1cccc(C(F)(F)F)c1; assay: Steady-state bioactivation kinetics; assay type: in vitro ADME, human; conditions: other: CYP2C19; metabolite M2/M4, path 1, 2; 95% CI in parentheses; pH 7.4
[14] = substrate: O=C(O)COC(=O)Cc1ccccc1Nc1c(Cl)cccc1Cl; assay: Steady-state bioactivation kinetics; assay type: in vitro ADME, human; conditions: other: CYP2C19, 95% CI in parentheses, pH 7.4
[15] = substrate: Cc1cccc(Nc2ccccc2C(=O)O)c1C; assay: Steady-state bioactivation kinetics; assay type: in vitro ADME, human; conditions: other: CYP2C19, path 1, 2, 95% CI in parentheses, pH 7.4
[16] = other: CYP2C19, metabolite M2/M4, path 1, 2
[17] = other: CYP2C19, metabolite M6, path 3
[18] = other: overall metabolism (depletion) by CYP2C19
[19] = other: CYP2C19, metabolite M6a, path 3
[20] = other: CYP2C19, metabolite M6b, path 3
[21] = other: CYP2C19, metabolite M2/M4a, path 1, 2
[22] = other: CYP2C19, metabolite M2/M4b, path 1, 2

Molecule: O=C(O)Cc1ccccc1Nc1c(Cl)cccc1Cl [DIC, diclofenac]
- Bioactivation Percent (CYP2C8 [1]; CYP2C8 contribution to total CLbioact of the NSAID): 0%
- Detoxification Percent (CYP2C8 [1]; CYP2C8 contribution to total CLdetox of the NSAID): 6.5%
- Bioactivation Percent (CYP2C9; CYP2C9 contribution to total CLbioact of the NSAID): 97.9%
- Detoxification Percent (CYP2C9; CYP2C9 contribution to total CLdetox of the NSAID): 12.0%
- Bioactivation Percent (CYP2C19 [2]; CYP2C19 contribution to total CLbioact of the NSAID): 1.0%
- Detoxification Percent (CYP2C19 [2]; CYP2C19 contribution to total CLdetox of the NSAID): 5.5%
- Km at 60 min (CYP2C19 [3]; human, recombinant CYP2C19 Supersomes, pH 7.4): 70.5 µM
- Vmax (CYP2C19 [3]; overall metabolism (depletion) by CYP2C19, 95% CI in parentheses): 1940 (1840–2040) pmol/min/nmol protein
- Km at 60 min (CYP2C8 [4]; human, recombinant CYP2C8 Supersomes, pH 7.4): 83 µM
- Vmax (CYP2C8 [4]; overall metabolism (depletion) by CYP2C8, 95% CI in parentheses): 1240 (1170–1320) pmol/min/nmol protein
- Bioactivation Percent (CYP3A4 [5]; CYP3A4 contribution to total CLbioact of the NSAID): 1.1%
- Detoxification Percent (CYP3A4 [5]; CYP3A4 contribution to total CLdetox of the NSAID): 75.9%
- Km at 60 min (CYP3A4 [6]; human, recombinant CYP3A4 Supersomes, pH 7.4): 130 µM
- Vmax (CYP3A4 [6]; overall metabolism (depletion) by CYP3A4, 95% CI in parentheses): 5480 (5090–5930) pmol/min/nmol protein

B1: CYP2C19 (Homo sapiens) (protein)
chain: MDPFVVLVLCLSCLLLLSIWRQSSGRGKLPPGPTPLPVIGNILQIDIKDVSKSLTNLSKIYGPVFTLYFGLERMVVLHGYEVVKEALIDLGEEFSGRGHFPLAERANRGFGIVFSNGKRWKEIRRFSLMTLRNFGMGKRSIEDRVQEEARCLVEELRKTKASPCDPTFILGCAPCNVICSIIFQKRFDYKDQQFLNLMEKLNENIRIVSTPWIQICNNFPTIIDYFPGTHNKLLKNLAFMESDILEKVKEHQESMDINNPRDFIDCFLIKMEKEKQNQQSEFTIENLVITAADLLGAGTETTSTTLRYALLLLLKHPEVTAKVQEEIERVIGRNRSPCMQDRGHMPYTDAVVHEVQRYIDLIPTSLPHAVTCDVKFRNYLIPKGTTILTSLTSVLHDNKEFPNPEMFDPRHFLDEGGNFKKSNYFMPFSAGKRICVGEGLARMELFLFLTFILQNFNLKSLIDPKDLDTTPVVNGFASVPPFYQLCFIPV
- Km [7, 16]: 5.8 µM
- kcat [7, 16]: 3.1 (3.0–3.2) pmol/min/nmol protein
- Km [7, 17]: 18.9 µM
- kcat [7, 17]: 64.2 (61.2–67.4) pmol/min/nmol protein
- kcat ([7]; other: CYP2C19, metabolite M9, path 4): 6.1 (5.7–6.4) pmol/min/nmol protein
- Km [7, 18]: 160 (130–190) μM
- kcat [7, 18]: 2400 (2210–2610) pmol/min/nmol protein
- Km [8, 16]: 36.8 µM
- kcat [8, 16]: 2.5 (2.4–2.7) pmol/min/nmol protein
- Km [8, 19]: 47.6 µM
- kcat [8, 19]: 1.8 (1.7–2.0) pmol/min/nmol protein
- Km [8, 20]: 115 µM
- kcat [8, 20]: 2.4 (2.2–2.6) pmol/min/nmol protein
- Km [8, 18]: 77.2 (64–93) μM
- kcat [8, 18]: 2610 (2450–2790) pmol/min/nmol protein
- Km [9, 21]: 7.4 µM
- kcat [9, 21]: 2.6 (2.5–2.7) pmol/min/nmol protein
- Km [9, 22]: 11 µM
- kcat [9, 22]: 3.9 (3.8–4.0) pmol/min/nmol protein
- Km [9, 18]: 110 (94–130) μM
- kcat [9, 18]: 2070 (1950–2210) pmol/min/nmol protein
- Km [10]: 150 (120–180) μM
- kcat [10]: 2500 (2310–2730) pmol/min/nmol protein
- Km [11]: 380 (320–460) μM
- kcat [11]: 3050 (2760–3410) pmol/min/nmol protein
- Km [12]: 220 (180–260) μM
- kcat [12]: 3060 (2830–3320) pmol/min/nmol protein
- Km [13]: 28.5 µM
- kcat [13]: 7.7 (7.4–8.1) pmol/min/nmol protein
- Km ([14]; metabolite M2/M4, path 1, 2): 18.8 µM
- kcat ([14]; metabolite M2/M4, path 1, 2): 4.4 (4.2–4.7) pmol/min/nmol protein
- Km ([14]; metabolite M6, path 3): 74.4 µM
- kcat ([14]; metabolite M6, path 3): 5.6 (5.2–6.1) pmol/min/nmol protein
- Km ([14]; metabolite M9, path 4): 8.9 µM
- kcat ([14]; metabolite M9, path 4): 4.1 (3.9–4.4) pmol/min/nmol protein
- Km ([15]; metabolite M2/M4a): 10.8 µM
- kcat ([15]; metabolite M2/M4a): 2.0 (1.9–2.1) pmol/min/nmol protein
- Km ([15]; metabolite M2/M4b): 13.6 µM
- kcat ([15]; metabolite M2/M4b): 1.5 (1.4–1.6) pmol/min/nmol protein
